The supplement of paper PMC9170038

Test system: K4 kissing-loop RNA reporter
Assay: apparent KD of K4 kissing-loop reporter; higher = weaker reporter binding
Details: Eterna round: R107
Method: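 RNA-MaP round R107: designed RNA switches with theophylline, tryptophan, arginine or FMN aptamers are transcribed on-chip within common flanks. They are titrated with a labelled K4 kissing-loop RNA reporter in RNA-MaP buffer (100 mM Tris pH 7.5, 80 mM KCl, 4 mM MgCl2), without ligand or with the indicated ligand. Median apparent KD per design.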

[1] = input ligand: theophylline 20 uM
[2] = input ligand: tryptophan 2.4 mM
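Further: bound reporter read as fluorescence of individual clusters on recovered sequencing chips by microscopy, with normalized cluster intensities fitted with a binding model.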

Sequence	apparent KD of K4 kissing-loop reporter (input ligand: FMN 200 uM) [µM]	apparent KD of K4 kissing-loop reporter (input ligand: arginine 13.2 mM) [µM]	apparent KD of K4 kissing-loop reporter (input ligand: none) [µM]	apparent KD of K4 kissing-loop reporter [1] [µM]	apparent KD of K4 kissing-loop reporter [2] [µM]
CGAGUGAUGUUCGAAGAGUUGUUAAGCGAUACCAGCCAGGAAACUGGCCCUUGGCAGCGUAAUAAAUAAAUAAAUAAAUGAUCAC [Theophylline A Exclusion; Euphoria Solution]	0.425	0.438	0.472	0.43	0.372
GUUGUCUACCAGAGGUGAUGUAUAGUAUCGCGAGGACCGGUACGGCCGCCACUCGUGAAGAGAAAGGAGUGAUGUUCCGUAAUGG [C10]	0.255	0.271	0.293	0.301	0.118
CGGUACGUCGCAGGAUAUGGAUUCUGGAGUGAUGUUUCAGAGGCAUGCGGAAAACGCAUGCCGACUCCAGAAGGGCGACGUACCG	0.752	0.0858	0.276	0.024	0.376
GGGAGGAGUGGUGUUGAUUAGGGAGCGGAAGGAGCGCCGAAGAAGGCAGGUAGGUCGCCGGAAUAUAGUGAUGUUAUAUAGAGGG [ExArg.G]	0.304	0.211	0.27	0.168	0.201
AUGCGCGCGGCGGCCGCCACUCGCAUGAGAGUGAUGUUCUCGCCGGGCCCGCAAGGGCCCGGUGUGAGGACCGGGCCGGGCUGCG [#2 Same State - Tryptophan B Attempt #18 (HarryS)]	0.632	0.000441	0.257	0.193	0.136
UGUCAUUGGUCGGCCGCCACUAAAUAAAAGAGUGAUGUUCUUAAGACGGAUCGAAAGAUCUGUCAUAGGACCGGGACCGAUGACU [TrypBS 21 #SwitchBubble #StaticStem]	1.2	0.891	1.08	0.888	0.667
GAUUCAGUGAUGUUGGAAGGCGAGCGGGAUACCAGCCGAGACUCAGGCCCUUGGCAGCCCACAUAUCCCAGGUAGAUAGUAGAUC [Same State - Theophylline A (Freestyle 8)]	0.193	0.106	0.129	0.166	0.135
UCCUACGAGGUAACGUGGAUAUCUCGUUGCAAGGAUAUCUGGAAACAGAGAAGGUGCUACAUUAUCGGCAGUGAUGUUGCUGACC	0.687	0.655	1.01	0.759	0.529
AGUGAUGUGGGAAGGAGCGGUAUAUGAAUUCAGUGAUGUUGAAGUGAUGCUGUAAUGAUGUGCCAGGUAGGUCGCCUAGAUGUUA [KL-XARG B26]	0.267	0.161	0.244	0.171	0.187
GCAGUGAUGUUGCGGAUGUACAGUGGCGUGCGAGGACCGGUACGGCCGCCACUCGUACAGAGCAAGCUAAUACAUCGAUAGGUGA [whbob_SS_Tryp_A_m4]	0.436	0.223	0.207	0.382	0.24
UUAUUAAUCGCAGAUACCAGUCCAGAAUGAAUACUAUAGUGAUGUUAUAAUAAAGGGAAGGACCCUUGGCAGCUGUAAUAUAUUU [AstrosSsTheB#3]	0.371	0.278	0.401	0.24	0.28
UGUGAUGAGUAGAGUGAUGUUUUGAAGGAUACCAGAGUGUUGUUAUUCCCUUGGCAGCUUGAGUGAUGUUUGAUGUUGUUGUUGU [rcrrmullin]	0.328	0.221	0.253	0.205	0.211
AAAAUUGCGGUCGAAAGAACUUCUUGCAUACGAGGACCGGUACGGCCGCCACUCGAGUCAAGUGAUGUUUGAUUUUCUAUUAUUA [JR_ExcTryptoA_Sub013]	0.135	0.17	0.16	0.205	0.153
UGUACCGAGUCAGGAUAUAGCGUCGAAAGACGAAUCCUAGUGAUGUUAGGGAUCUGCGAAAGCAGUCUAGAAGGGACUUGGUACU [FmnBS 26 A19+U68]	0.275	0.278	0.295	0.293	0.291
ACGCUAGCUACCGAAAGGUAGCUAGCGAGUGAGGAUAUGUGGAAACACAGAAGGCACAGCGCAGUGAUGUUGUGCGGCGGAAGCG [whbob_SS_FMNA__2th168]	0.604	0.221	0.631	0.664	0.473
UGUCAUUGGUCGGCCGCCACUUCAUAUAGAGUGAUGUUCUGAAAGACGGAUCGAAAGAUCUGUCGAAGGACCGGGACCGAUGACU [FiskerMod 12 - Jieux - Same State - Tryptophan B]	1.1	0.81	1.64	1.1	0.268
UUAUAUUUUAUAUUUAGUAGAGCUCUAGCUCGAGGACCGGUACGGCCGCCACUCGAGUGAUGUUCGAGUGGGUGAGCUCUACAUU [AK3 EXC Tryptophan A]	0.124	0.0957	0.103	0.101	0.363
GUCCACACUGCAGGAUAUGGAGGUAUAGCGAGGGAGUGUGGAAGCACACCUCUGGCAGUGAUGUUGCCAGAAGGGCGGUGCGGCG [Masodionra]	0.118	0.103	0.119	0.0903	0.0932
UGAUACCAGACGGCCGCCACUCCUGCAGUCAAAGACUGCAAAGGAAUAUUCGUCCAGUGAUGUUGGAGGACCGGGUCUGGUAUCU [TrypBX 11 #SwitchBubble #Palindromic #StaticStem]	0.974	0.698	1.21	0.701	0.844
UGGAUAUAGUGAUGUUAUAUAGAGAGGGAUACCAGUUUAGAGAAGAACCCUUGGCAGCCUAAAGAAGUAUCAUUAGAGAAGAAUG [ExTheophyl.An]	0.37	0.229	0.253	0.324	0.241
GCAACAUUGGUAGGAUAUCAUUCUGAGUGAUGUUCAGGGUUCAGCUAACGAAAGUUAGUUGUACCAUGAGAAGGGCUAAUGUUGC [Omei KL FMN B SS A v5]	0.425	0.711	0.967	0.82	0.989
UUUUGGUUCUGAGGAUAUUCGAAGAAAUAUAGUGAUGUUAUAUAAGGAGGAGGAUGGAGGGAGGAAGGAGAAGGCAGAAGAGGAG [ExFMNB.I]	0.89	0.492	0.7	0.923	0.417

Sequence	apparent KD of K4 kissing-loop reporter (input ligand: FMN 200 uM) [µM]	apparent KD of K4 kissing-loop reporter (input ligand: arginine 13.2 mM) [µM]	apparent KD of K4 kissing-loop reporter (input ligand: none) [µM]	apparent KD of K4 kissing-loop reporter [1] [µM]	apparent KD of K4 kissing-loop reporter [2] [µM]
CGCAGUGAUGUUGCGAGUAGCUACAGGGAAGGAGCGUGCUAGAGCACAGGUAGGUCGCCCUCGGGCAGUGAUGUUGCCAAAGGUU [Exclusion ARginine A GF 16]	0.0771	0.0852	0.0798	0.0806	0.0683
GGUGUUGUUUGUGCUGUUUUCCUCGUUCCUCGAGGACCGGUACGGCCGCCACUCGAGUGAUGUUUGGGUAGCGAUCCCUGUUAGU [Bdazzled - #8 Exc. Tryptophan A]	0.624	0.504	0.675	0.649	0.593
UUAUAUUUUAUAUUUAGAUGAUCUAUAGCACGAGGACCGGUACGGCCGCCACUCGAGUGAUGUUCGAGAGCUAUAGAUCAUCAUU [AK2.2 EXC Tryptophan A]	0.142	0.132	0.148	0.121	0.207
GAUUCUAGCGAAAGUGAUGUUUUCGAGGAUACCAGUGCCACUUGACACCCUUGGCAGCCUACCCGUCAUCACAAGUGGCGUUAAA [theeternabot_exclusion_KL_Theo_A_28]	0.136	0.114	0.129	0.138	0.118
UGGCGGACGAUCCGGAGUGAUGUUCCGGAUACCAGCAGAAGAGCCUGCCCUUGGCAGCCGUGCGACGCUGGGAGAGUCCGGCGUC [Requered]	0.104	0.088	0.104	0.107	0.0997
ACUAUGGAGUGAUGUUCCCGCGUCAUUGAUACCAGAAUGUAUACCUUCCCUUGGCAGCAAUUCAUCGCACGUAUACUUAUACAAG [theeternabot_sameState_KL_Theo_A_31]	0.585	0.541	0.665	0.841	0.541
UGAUACCAGACGGCCGCCACUGCACCAGUCAAUGACUGAGUGUAGUAAUGCUCAGUGAUGUUGAGUAGGACCGGGUCUGGUAUCU [Mod of Eli's TrypBX 8 v1]	0.141	0.122	0.128	0.122	0.13
CAUACGCAUGGAGGAUAUGAGAUUUCUCAUAUUAUUUAUUAUUCUCAGUGAUGUUGGGAUUUAAACUCAGAAGGCCAUGUGUAUG [Ex FMN B 8]	0.252	0.176	0.175	0.244	0.199
UAACUGCAGUGAUGUUGCAGAUGUCCUGACUAGGAUAUCAGGAAACUGAGAAGGAGUGCCUUCUAAACAUCACAGAAGGUGGACA [KL-SSFMN-A28]	0.36	0.44	0.415	0.286	0.458
GGUCGAGUGAUGUUCGAUGUAGUGCAUUCAGAGGAUAUAGGAUUGGCUAGAAGGCUGAAACCUUCUUCGAGUGAUGUUCGAGGAU [Same State FMN A GF5]	0.13	0.0838	0.112	0.0901	0.0778
UGCACGGGCUCGGCCGCCACUCCCGCGGGUCGCAAGGUCCGCUACUGAGUGAUGUUCGGUUGGAGGAGGACCGGGAGCCCGUGCA [#2 Exclusion - Tryptophan B Attempt #27 (HarryS)]	0.131	0.11	0.113	0.112	0.107
AGUUUAGAGUGACUCGAUAAGAGUCACAAACGAGGACCGGUACGGCCGCCACUCGAAAUAACGAGAGUGAUGUUCUCGCUGGGUA [FiskerMod 4 - Jieux - Same State Tryptophan A]	0.317	0.33	0.342	0.317	0.0933
GAGCGGUAGAGGCUACCGCUAUUCUGAGAAGGAGCGCAGAUGACUGCAGGUAGGUCGCUUAGAGCUUGCAGUGAUGUUGCAAGUU [Inzarier]	0.178	0.176	0.191	0.181	0.181
UGUAUGUGAUUUGAUACCAGACCAGCUGGUGUUAGAUGAGUGAUGUUGAUCUAGGGUUGGGUCCCUUGGCAGCAAAUCGCAUACU [KL-SSTheoB22]	0.593	0.391	0.557	0.435	0.463
GCCGUAGAUUGAAGGAGCGUUCUUACUGAUUACGGCAGCCGGAAGUGAUGUUUCCAGGUGGAACAGGUAGGUCGCAAUCUACGGC	0.104	0.0872	0.096	0.0998	0.092
GUAUAUUAGGGAGACCUAAUAUAAAUAGAAGGAGCGUAGGAAACUACAGGUAGGUCGCUAAAUAUACAGUGAUGUUGUAUAAUGG [arg a same]	0.183	0.147	0.172	0.195	0.141
GUCAUGCGUUCAGGAUAUGGACCAAUUUAUAUUGCUUAUGCUGUGCCCUGUAUGGCAGUGAUGUUGCCAGAAGGGAGGGCAUGCA [Erbionvean]	0.116	0.088	0.0966	0.111	0.102
CGAUUUGCUUCAGCCUUAGUGAUGUUAAGGCGAGGACCGGUACGGCCGCCACUCGUAGGUUAUGUGCACGGCGGCGCUAAGGGCC [theeternabot_exclusion_KL_Trp_A_36]	0.109	0.107	0.111	0.12	0.108
AAUAAGUGUCAGCGAGUGAUGUUCGACGAUACCAGACUCGAUAGAGUCCCUUGGCAGCGUAACGCAUGCCAAACUGGCACAAUAA [#SwitchBubble 8 #K4Early]	0.444	0.444	0.611	0.507	0.45
UUAUAACCCAGUGAUGUUGGGUAGCGGCCACGAGGACCGGUACGGCCGCCACUCGAGGUUUGACCAGUGAUGUUGGACUAUUUGG [Same state Tryptophan A GF 5]	0.163	0.134	0.156	0.147	0.0471
AGAAGAGUGAUGUUCUUCUAUAUCUCAGAAGGAGCGACAUUAAUGUCAGGUAGGUCGCUGAGAUGAAAUCUCACACAGAUCUUGG [Arg A SS t8a]	0.145	0.154	0.149	0.178	0.125
